Patent US20230287125A1 (LEPU BIOPHARMA, published 2023)

Tests used:
[1] = biological target: T1, human PD-L1-his tag protein (human, UniProt Q9NZQ7 19-238); assay: SPR (Biacore), affinity ranking, PDL1-His
T1 construct: also called human PD-L1-His protein; recombinant PD-L1 protein; not shown: his tag

[2] = biological target: T2, human PD-L1 over-expressed on CHOK1 cells (human, UniProt Q9NZQ7 19-290); assay: flow cytometry (MFI) on PDL1-CHOK1 cells; lower right panel
T2 construct: whole, on cells; also called PDL1-CHOK1 cells
T2 sequence (Q9NZQ7 19-290): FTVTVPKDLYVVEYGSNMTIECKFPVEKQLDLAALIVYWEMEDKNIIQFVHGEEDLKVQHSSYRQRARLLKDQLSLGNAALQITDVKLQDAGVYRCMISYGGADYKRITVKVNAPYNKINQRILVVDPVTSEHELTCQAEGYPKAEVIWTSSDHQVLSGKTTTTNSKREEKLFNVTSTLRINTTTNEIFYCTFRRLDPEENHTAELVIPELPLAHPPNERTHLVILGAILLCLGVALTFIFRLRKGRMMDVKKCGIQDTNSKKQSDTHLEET
Procedure: (§1) To evaluate the antigen binding property, the humanized antibodies were analyzed for their binding to PD-L1 overexpressed on mammalian cells by FACS. Briefly, PDL1-CHOK1 cells were firstly incubated with 3-fold serious diluted humanized antibodies starting at 15 μg/ml at 4° C. for 40 mins. After washed by PBS, the Alexa Fluor® 647 AffiniPure Goat Anti-Human IgG (H+L) antibody was added to each well and incubated at 4° C. for 30 mins. The MFI of Alexa Fluor® 647 was evaluated by FACSCanto.

[3] = biological target: T1, human PD-L1-his tag protein; assay: SPR (Biacore T200), mAb captured on Protein A chip, PD-L1-his injected
Procedure: The binding of the humanized antibodies to recombinant PD-L1 protein (human PD-L1-his tag) was tested by Biacore using a capture method. […] A serial dilution of human PD-L1-his tag protein was injected over captured antibody for 2 mins at a flow rate of 30 μl/min. The antigen was allowed to dissociate for 1500 s. All the experiment were carried out on a Biacore T200.

[4] = biological target: T3, human PD-L1-Fc protein (human, UniProt Q9NZQ7 19-238); assay: ELISA, antibody titrated on coated human PD-L1-Fc, OD 450nm; upper right panel
T3 construct: coating antigen of the ELISAs; also called rhPD-L1-Fc; not shown: Fc
T3 sequence (Q9NZQ7 19-238 limits assumed): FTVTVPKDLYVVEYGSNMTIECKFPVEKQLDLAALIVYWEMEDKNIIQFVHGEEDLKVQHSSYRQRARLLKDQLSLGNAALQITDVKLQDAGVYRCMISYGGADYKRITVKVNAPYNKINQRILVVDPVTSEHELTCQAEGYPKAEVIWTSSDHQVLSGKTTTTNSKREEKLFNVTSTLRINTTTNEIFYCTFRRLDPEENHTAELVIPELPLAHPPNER

[5] = biological target: T3, human PD-L1-Fc protein; assay: receptor blocking ELISA: coated human PD-L1-Fc, blocked ligand biotin-labeled human PD-1-Fc (Bio-PD1), OD 450nm; lower right panel
Procedure: (§2) Briefly, microtiter plates were coated with human PD-L1-Fc protein at 0.5 μg/ml in PBS, 100 μl/well at 4° C. overnight, then blocked with 150 μl/well of 1% BSA at 37° C. for 2 hours. […] The plates were washed with PBS/Tween and then incubated with Streptavidin-HRP for 10 mins at 37° C. After washing, the plates were developed with TMB substrate and analyzed by spectrophotometer at OD 450 nm.

[6] = biological target: T3, human PD-L1-Fc protein; assay: receptor blocking ELISA: coated human PD-L1-Fc, blocked ligand biotin-labeled human CD80-Fc (Bio-CD80), OD 450nm; lower right panel
Procedure: as §2

[7] = biological target: rat PD-L1 protein (rat, UniProt D4AE25 19-239); assay: ELISA, coated rat PD-L1
Sequence of rat PD-L1 protein (D4AE25 entry or part of it limits assumed): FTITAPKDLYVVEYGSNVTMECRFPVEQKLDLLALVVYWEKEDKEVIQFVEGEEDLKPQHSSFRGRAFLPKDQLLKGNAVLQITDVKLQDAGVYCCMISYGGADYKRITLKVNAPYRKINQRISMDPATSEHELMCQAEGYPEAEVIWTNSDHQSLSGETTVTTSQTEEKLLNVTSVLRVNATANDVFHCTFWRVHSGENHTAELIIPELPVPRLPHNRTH
Procedure: (§3) ELISA testing was carried out to evaluate the binding of chimeric antibodies to human, mouse, rat, and cynomolgus PD-L1, respectively.
(§4) Briefly, microtiter plates were coated with human, mouse, rat and cynomolgus PD-L1 proteins at 0.5 μg/ml in PBS, 100 μl/well at 4° C. overnight, then blocked with 150 μl/well of 1% BSA. Three-fold dilutions of chimeric antibodies starting from 10 μg/ml were added to each well and incubated for 1 hour at 37° C. The plates were washed with PBS/Tween and then incubate with mouse-anti-human IgG Fab antibody conjugated with Horse Radish Peroxidase (HRP) for 30 mins at 37° C. After washing, the plates were developed with TMB substrate and analyzed by spectrophotometer at OD 450 nm.

[8] = biological target: mouse PD-L1 protein (mouse, UniProt Q9EP73 19-239); assay: ELISA, coated mouse PD-L1
Sequence of mouse PD-L1 protein (Q9EP73 19-239 limits assumed): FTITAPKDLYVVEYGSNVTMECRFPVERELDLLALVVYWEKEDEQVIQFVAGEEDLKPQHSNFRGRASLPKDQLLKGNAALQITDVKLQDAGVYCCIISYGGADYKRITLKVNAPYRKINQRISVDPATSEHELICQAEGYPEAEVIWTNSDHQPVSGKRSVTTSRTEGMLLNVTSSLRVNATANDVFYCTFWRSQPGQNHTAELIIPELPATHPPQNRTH
Procedure: as §3, §4

[9] = biological target: T2, human PD-L1 over-expressed on CHOK1 …; assay: flow cytometry on PDL1-CHOK1 cells
Procedure: After washing by PBS, Alexa Fluor® 647 AffiniPure Goat Anti-Human IgG (H+L) was added to each well and incubated at 4° C. for 30 mins. Samples were washed twice with FACS buffer. The mean florescence intensity (MFI) of Alexa Fluor® 647 was evaluated by FACSCanto.

[10] = biological target: cynomolgus PD-L1 protein (cynomolgus, UniProt G7PSE7 19-238); assay: ELISA, coated cynomolgus PD-L1
Sequence of cynomolgus PD-L1 protein (G7PSE7 entry or part of it): as the sequence (Q9NZQ7 19-238 limits assumed) above, with A33T, A34S, S62N, R68Q, Q82R, F173L, T185A, T192I, H215L counted along it
Procedure: as §3, §4

[11] = biological target: T3, human PD-L1-Fc protein; assay: ELISA, coated human PD-L1 (PD-L1-Fc per paragraph 110)
Procedure: as §2, with “1% BSA.” for “1% BSA at 37° C. for 2 hours.”, “with Mouse-anti-human IgG Fab antibody conjugated with Horse Radish Peroxidase (HRP)” for “with Streptavidin-HRP”, “for 30” for “for 10”
as §4

[12] = biological target: T1, human PD-L1-his tag protein; assay: SPR (Biacore T200), mAb captured on Protein A chip, PD-L1-his injected; remark: listed apart in the source
Procedure: A serial dilution of human PD-L1-his tag protein was injected over captured antibody for 2 mins at a flow rate of 30 μl/min. The antigen was allowed to dissociate for 480-1500 s. All the experiment were carried out on a Biacore T200. Data analysis was carried out using Biacore T200 evaluation software.

[13] = biological target: T3, human PD-L1-Fc protein; assay: competition ELISA, coated human PD-L1-Fc, biotin-labeled human PD-1-Fc as competitor
Procedure: as §2, with “BSA.” for “BSA at 37° C. for 2 hours.”

[14] = biological target: T2, human PD-L1 over-expressed on CHOK1 …; assay: flow cytometry (MFI) on PDL1-CHOK1 cells; lower right panel (with the Hu89C10H8 antibodies)
Procedure: as §1

[15] = biological target: T3, human PD-L1-Fc protein; assay: ELISA, antibody titrated on coated human PD-L1-Fc, OD 450nm; upper left panel (with Hu89C10H8-1 to -6)
Procedure: as §4, with “To evaluate antigen binding activity, the humanized antibodies were subjected to ELISA test. Briefly,” for “Briefly,”, “with human PD-L1-Fc protein” for “with human, mouse, rat and cynomolgus PD-L1 proteins”, “with 200” for “with 150”, “of humanized” for “of chimeric”, “then incubated” for “then incubate”, “for 1 hour” for “for 30 mins”

[16] = biological target: T3, human PD-L1-Fc protein; assay: ELISA, antibody titrated on coated human PD-L1-Fc, OD 450nm; lower left panel (with Hu89C10H8-13 to -16)
Procedure: as §4, with “To evaluate antigen binding activity, the humanized antibodies were subjected to ELISA test. Briefly,” for “Briefly,”, “with human PD-L1-Fc protein” for “with human, mouse, rat and cynomolgus PD-L1 proteins”, “with 200” for “with 150”, “of humanized” for “of chimeric”, “then incubated” for “then incubate”, “for 1 hour” for “for 30 mins”

[17] = biological target: T3, human PD-L1-Fc protein; assay: ELISA, antibody titrated on coated human PD-L1-Fc, OD 450nm; upper right panel (with Hu89C10H8-7 to -12)
Procedure: as §4, with “To evaluate antigen binding activity, the humanized antibodies were subjected to ELISA test. Briefly,” for “Briefly,”, “with human PD-L1-Fc protein” for “with human, mouse, rat and cynomolgus PD-L1 proteins”, “with 200” for “with 150”, “of humanized” for “of chimeric”, “then incubated” for “then incubate”, “for 1 hour” for “for 30 mins”

[18] = biological target: T3, human PD-L1-Fc protein; assay: receptor blocking ELISA: coated human PD-L1-Fc, blocked ligand biotin-labeled human PD-1-Fc (Bio-PD1), OD 450nm; upper left panel (with Hu89C10H8-4)
Procedure: as §2

[19] = biological target: T3, human PD-L1-Fc protein; assay: receptor blocking ELISA: coated human PD-L1-Fc, blocked ligand biotin-labeled human PD-1-Fc (Bio-PD1), OD 450nm; lower left panel (with Hu89C10H8-11)
Procedure: as §2

[20] = biological target: T3, human PD-L1-Fc protein; assay: receptor blocking ELISA: coated human PD-L1-Fc, blocked ligand biotin-labeled human PD-1-Fc (Bio-PD1), OD 450nm; upper right panel (with Hu89C10H8-7)
Procedure: as §2

[21] = biological target: T3, human PD-L1-Fc protein; assay: receptor blocking ELISA: coated human PD-L1-Fc, blocked ligand biotin-labeled human CD80-Fc (Bio-CD80), OD 450nm; upper left panel (with Hu89C10H8-4)
Procedure: as §2

[22] = biological target: T3, human PD-L1-Fc protein; assay: receptor blocking ELISA: coated human PD-L1-Fc, blocked ligand biotin-labeled human CD80-Fc (Bio-CD80), OD 450nm; lower left panel (with Hu89C10H8-11)
Procedure: as §2

[23] = biological target: T3, human PD-L1-Fc protein; assay: receptor blocking ELISA: coated human PD-L1-Fc, blocked ligand biotin-labeled human CD80-Fc (Bio-CD80), OD 450nm; upper right panel (with Hu89C10H8-7)
Procedure: as §2

[24] = biological target: T3, human PD-L1-Fc protein; assay: receptor blocking ELISA: coated human PD-L1-Fc, blocked ligand biotin-labeled human CD80-Fc (Bio-CD80), OD 450nm; lower right panel (with Hu89C10H8-12)
Procedure: as §2

T1 sequence (Q9NZQ7 19-238 limits assumed): as the sequence (Q9NZQ7 19-238 limits assumed) above

B1: Hu89C10H8-12 (antibody, V domains shown)
VH: EVQLVESGGGLVKPGGSLRLSCAASGFTFSNYWMTWIRQAPGKGLEWVASITNTGSSTFYPDSVKGRFTISRDNAKSSLYLQMNSLRAEDTAVYYCTRDTTIAPFDYWGQGTMVTVSS
VL: DIQMTQSPSSLSASVGDRVTITCKASQNLNEYLNWYQQKPGKAPKRLIYKTNTLQAGIPSRFSGSGSGIDYTLTISSLQPEDFATYYCSQYNSGNTFGQGTKLEIK
notes: humanized
- Kd [1]: 0.0968 nM
- koff [1]: 7.04e-05 s⁻¹
- kon [1]: 727000 M⁻¹ s⁻¹
- EC50 [2]: 0.131 nM
- Kd [3]: 0.0952 nM
- koff [3]: 5.59e-05 s⁻¹
- kon [3]: 587000 M⁻¹ s⁻¹
- EC50 [4]: 0.00703 µg/mL
- IC50 [5]: 0.0891 µg/mL
- IC50 [6]: 0.284 µg/mL

B2: 89C10H8 chimeric mAb (antibody, V domains shown)
VH: EVQLVESGGGLVQPGRSLTLSCVASGFTFSNYWMTWIRQAPGKGLEWVASITNTGSSTFYPDSVKGRFTISRDNTRSTLFLQINSLRSEDTATYYCTRDTTIAPFDYWGQGVMVTVSS
VL: DIQMTQSPSFLSASVGDRVTITCKASQNLNEYLNWYQQKLGEAPKRLIYKTNTLQAGIPSRFSGSGSGIDYTLTISSLQPEDVATYFCSQYNSGNTFGAGTKLELK
notes: chimeric mAb of the hybridoma clone; also called 89C10H8-chimera
- binding result [7]: no binding (tested: dilutions starting from 10 µg/ml)
- binding result [8]: no binding (tested: dilutions starting from 10 µg/ml)
- EC50 [9]: 0.17 nM
- EC50 [10]: 0.00677 µg/mL
- EC50 [11]: 0.00811 µg/mL
- Kd [12]: 0.0415 nM
- koff [12]: 6.64e-05 s⁻¹
- kon [12]: 1.6e+06 M⁻¹ s⁻¹
- IC50 [13]: 0.13 µg/mL
- EC50 [14]: 0.118 nM
- EC50 [15]: 0.012 µg/mL
- EC50 [16]: 0.0126 µg/mL
- EC50 [17]: 0.0157 µg/mL
- IC50 [18]: 0.12 µg/mL
- IC50 [19]: 0.133 µg/mL
- IC50 [20]: 0.126 µg/mL
- IC50 [21]: 0.432 µg/mL
- IC50 [22]: 0.434 µg/mL
- IC50 [23]: 0.438 µg/mL
- IC50 [24]: 0.382 µg/mL
